This passage reports amyloid nucleation score results from the supplement of paper PMC12042874.

± gives the uncertainty stated by the source.

The series can be described thus: amyloid nucleation score (Sup35N fusion, yeast selection) (log enrichment); library NNK2; higher = more nucleation; inactive = no reads after selection. The procedure, abridged: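 The nucleation score equals the log enrichment of output over input reads from DiMSum, centred on the mode score of non-aggregating sequences. It was computed only for sequences with 100 or more input reads. The reads came from Illumina sequencing of plasmid inserts from psi-negative yeast expressing Sup35N fused to peptides of 20 random codons, induced with 100 μM copper sulfate for 24 hours and grown 7 days at 30°C without adenine and uracil.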
On to TLWVDRVREMC, for which the amyloid nucleation score is -0.809 ± 0.36.

Consider FLISSMHWYCHKPCWGFLGQ, for which the amyloid nucleation score was -0.569 ± 0.79.

In the case of YSSSSSTYNAWFSMPESHEL, the amyloid nucleation score was 0.264 ± 0.15.

For YWANMVG, the amyloid nucleation score was -0.328 ± 0.48.

On to SLRWDYLHLVWRHAEGGYGK, for which the amyloid nucleation score was determined as 6.678 ± 0.038.

NFCFVWLSREYHRLALCSGV: the amyloid nucleation score result is “inactive”.

As to VGFVCDLTGMNMGRFFKCGN, the amyloid nucleation score result is “inactive”.

Take YFVRFEDIGWTVSVHTGDSG: the amyloid nucleation score is -0.063 ± 0.45.

Substance RCFMGVA returned an amyloid nucleation score of 0.276 ± 0.65.

The substance RYASDFWILNICAGDIVILL came in with an amyloid nucleation score of 8.495 ± 0.054.

In turn, FAYSLHRLLWIRCMYSNGR yielded an amyloid nucleation score of 1.45 ± 0.17.

IGISYCSRRVIFHGTRKTHS: the amyloid nucleation score is -0.034 ± 0.28.

TSDYYTSNVQDSALRHFFSP: the amyloid nucleation score was -0.081 ± 0.34.

As to MCPNGPAVIGMLFRLHTLFK, the amyloid nucleation score worked out at 0.168 ± 0.35.

For the substance PGLRGGA, the amyloid nucleation score is -0.398 ± 0.76.

Take TMGYNFRCYVPLMNMLVRGV: the amyloid nucleation score is -0.614 ± 0.54.

DNKSCFTNVWNYNVTEHWGH: the amyloid nucleation score is -1.4 ± 0.54.

Consider TGIDHYFWLFFSYLGTLWSK, for which the amyloid nucleation score entry is “inactive”.

Take IVDHVYCIVILDLEHFFYNE: the amyloid nucleation score was determined as 5.02 ± 0.083.

The substance IIDNYNYMF yielded an amyloid nucleation score of -0.963 ± 1.1.

Substance VMRIVMIDMKSESWSTERVS registered an amyloid nucleation score of 0.611 ± 0.57.

The substance TITPKSSICNPLRDNSYSVV registered an amyloid nucleation score of 0.136 ± 0.65.

Consider FSMMFIL, for which the amyloid nucleation score stood at 3.57 ± 0.075.

In turn, VGCPEMGLVSLGSLLRLGSA returned an amyloid nucleation score of 0.968 ± 0.39.

As for PAMSVHGNSAESTYVIMHYF, the amyloid nucleation score was -0.494 ± 0.54.

ILSLIYGA displayed an amyloid nucleation score of -0.084 ± 0.54.

In turn, ASLLGQKSAVGILRIHSKLY showed an amyloid nucleation score of -0.573 ± 1.1.

In the case of SFSVYRFVGTLSGYADLGLG, the amyloid nucleation score worked out at 0.302 ± 0.37.

In the case of KYSNVTCWFSDHLGWRFHTF, the amyloid nucleation score result was “inactive”.

NLISKDIVLHWSRALC: the amyloid nucleation score was determined as 0.339 ± 0.56.

As for SCRSIRYEWRHDTVGRRSTR, the amyloid nucleation score stood at 3.2 ± 0.064.

The substance IYVGIHNLILMTSTLGVNKR had an amyloid nucleation score of 6.06 ± 0.041.

On to VGIDYV, for which the amyloid nucleation score entry was “inactive”.

PMAPSCLYRIIIMN showed an amyloid nucleation score of 1.51 ± 0.26.

Regarding TVVKDHEYKEWSDWSF, the amyloid nucleation score entry was “inactive”.

PCERPFERFLVLNRFSDSST had an amyloid nucleation score of 0.183 ± 0.62.

ERVDVI: the amyloid nucleation score was -0.364 ± 0.32.

VSTGAWCYGLWSVLQGWERG: the amyloid nucleation score was 5.02 ± 0.082.

VYEAWRTMQTGMYGVNRVWS had an amyloid nucleation score of 0.911 ± 0.15.

The substance LYRTYLYTDYFTKMHV gave an amyloid nucleation score of -1.16 ± 0.76.

With MDSILVNVYVVNW, the amyloid nucleation score is 9.259 ± 0.042.

Substance ILANCGCCSNFSFYQMGEKY yielded an amyloid nucleation score of 8.279 ± 0.047.

With VVNSQQFVGLCSRRSA, the amyloid nucleation score was determined as 0.576 ± 0.42.

Substance RFYKSNGPRF yielded an amyloid nucleation score of -1.28 ± 0.78.

For YVYMSYPYIILLFHYMSSDW, the amyloid nucleation score result is “inactive”.

In turn, CSLTSFAGNSIYFRWRANT yielded an amyloid nucleation score of 1.18 ± 0.14.

ESTLDC registered an amyloid nucleation score of 0.343 ± 0.41.

With SEFLRKVSFFLFYLFSSGHL, the amyloid nucleation score is -0.73 ± 0.61.

Consider PERCYQTG, for which the amyloid nucleation score was -0.251 ± 0.76.

As for IRSFVSIRMFVCGRSDLRSN, the amyloid nucleation score was -0.22 ± 1.1.

In turn, ITFFLRDMIAC registered an amyloid nucleation score of -0.907 ± 1.

LSEFYRLRYYTGCQ registered an amyloid nucleation score of 1.05 ± 0.31.

For TAASISIDRTKSMPLSDRMY, the amyloid nucleation score entry is “inactive”.

Turning to TSGWNAERMFEHINGQFVFL, the amyloid nucleation score was -0.195 ± 0.49.

CMFSLNGAYSMPHVKMSMCM displayed an amyloid nucleation score of -0.786 ± 0.46.

Consider PSSSVCNINCYSKRSDRSVV, for which the amyloid nucleation score is -0.09 ± 0.63.

As to RLCRSAPG, the amyloid nucleation score stood at 1.3 ± 0.44.

In turn, LGVESTCRSWFMFLGTQRIA had an amyloid nucleation score of -0.342 ± 1.

In turn, FTLDNMSLQTRTLMRYE had an amyloid nucleation score of -0.863 ± 0.49.

Substance LLSTDESCSTLNIYCIYTPR displayed an amyloid nucleation score of 8.139 ± 0.045.

For the substance VTYEIVLWSWIKDVVHKLLR, the amyloid nucleation score is -0.483 ± 0.48.

With FNKDMSNKFNSDKGELSSFM, the amyloid nucleation score result was “inactive”.

DSRMRWL gave an amyloid nucleation score of 0.149 ± 0.27.

Substance APGWKLMNTSPNRMSTLNLQ registered an amyloid nucleation score of -0.633 ± 1.1.

In the case of VNSLSGHFFVFFRLLFTTMV, the amyloid nucleation score was -1.1 ± 0.41.

For the substance RLASSIRWTTFSSDGRVRIL, the amyloid nucleation score was determined as 0.783 ± 0.57.

The substance HYLPT gave an amyloid nucleation score of -0.208 ± 0.35.

In turn, VDIVFSPSTNQWFLFLNCLV showed an amyloid nucleation score of 4.24 ± 0.038.

Substance CLMDCGLYFTGSNLRAMCTW had an amyloid nucleation score of -0.223 ± 0.49.

Substance LCFFT gave an amyloid nucleation score of 0.383 ± 0.74.

In the case of SSWLRINRIYLYEQL, the amyloid nucleation score is -0.305 ± 1.

AVPCNC yielded an amyloid nucleation score of -0.216 ± 0.62.

In the case of PSIWSLDGSYFCSADENCKR, the amyloid nucleation score result is “inactive”.

TYSTSSLYRMEIHLAFSASV: the amyloid nucleation score was -0.22 ± 1.

With IFYKPVFSLFVIGSRMNGGI, the amyloid nucleation score came out at 7.29 ± 0.054.

SLSDELAERNSRCTRLTPWM: the amyloid nucleation score was determined as 1.61 ± 0.23.

For the substance QIFTKRVRTNLPFQFSNYVG, the amyloid nucleation score came to 0.479 ± 0.74.

With AYWYSQRAMGFKHSLFLT, the amyloid nucleation score was -0.921 ± 0.41.

For YHWNVGIDGYLNSTMLLQAY, the amyloid nucleation score entry is “inactive”.

Turning to CYISFWARRFDEYLSLLSFA, the amyloid nucleation score was -0.343 ± 0.42.

With MIPKVFSIRKSVGIYWNAEY, the amyloid nucleation score was -1.04 ± 0.39.

On to DARSDVF, for which the amyloid nucleation score entry was “inactive”.

As to MTQRHFLVDTGRKAR, the amyloid nucleation score was 1.22 ± 0.48.

As for LFFYTYWC, the amyloid nucleation score result is “inactive”.

Take NIAMSDMDILLMQRAQKWLR: the amyloid nucleation score is 1.1 ± 0.54.

In turn, QTCLHMSIGWVSP gave an amyloid nucleation score of 4.38 ± 0.082.

As for VGGIWE, the amyloid nucleation score is -0.427 ± 0.45.

SDAFGRRHSSLAM gave an amyloid nucleation score of 1.56 ± 0.14.

The substance ICLVLCRGSDA yielded an amyloid nucleation score of 0.554 ± 0.74.

For GDVCNVLLAYWVFVTLSFSV, the amyloid nucleation score came to 1.5 ± 0.58.

Take AAPVMH: the amyloid nucleation score was -0.354 ± 0.76.

The substance SSFRVELHRCFVKVFLLLY displayed an amyloid nucleation score of -0.266 ± 1.

Take HSWVFLWRGNCSFWRDSFKV: the amyloid nucleation score result was “inactive”.

QCLTSRLGSKIVMCKSLDIS: the amyloid nucleation score was found to be 0.009 ± 0.23.

Regarding TAVCKISPQQWAGCHLIHRH, the amyloid nucleation score was 5.3 ± 0.095.

As for DAVFGTCSLFCRTCAKASFG, the amyloid nucleation score was found to be 1.58 ± 0.25.

Substance IGESLRYIRRVILSMIFHLA came in with an amyloid nucleation score of 1.18 ± 0.66.

The substance SSLTANGNNSMT registered an amyloid nucleation score of -0.173 ± 0.63.

In turn, MPAFWSWSERGLSVRILGPA yielded an amyloid nucleation score of 3.05 ± 0.084.

With ACLLLRSMFSKQRLTFR, the amyloid nucleation score is -0.38 ± 0.76.

EGIVAMAERYYSSNIRAVTW came in with an amyloid nucleation score of 0.296 ± 0.32.

As for DDCKQRTHNDYMD, the amyloid nucleation score was 0.175 ± 0.37.

Take FLLPIWGSNHNTLNFR: the amyloid nucleation score was -0.547 ± 1.1.
